According to paper PMC9283627, “Auxotrophic and prototrophic conditional genetic networks reveal the rewiring of transcription factors in Escherichia coli”:

Target: T1, YneJ (Escherichia coli (K-12 strain not …, UniProt P77309 1-293))
T1 sequence: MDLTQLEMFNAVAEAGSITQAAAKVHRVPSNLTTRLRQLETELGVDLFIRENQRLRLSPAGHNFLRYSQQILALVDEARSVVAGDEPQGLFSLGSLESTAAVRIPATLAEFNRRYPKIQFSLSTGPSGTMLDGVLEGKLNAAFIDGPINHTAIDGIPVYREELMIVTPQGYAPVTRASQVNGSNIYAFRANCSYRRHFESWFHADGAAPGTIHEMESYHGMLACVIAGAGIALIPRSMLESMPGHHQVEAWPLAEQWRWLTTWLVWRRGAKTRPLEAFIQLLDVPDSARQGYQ
Test: fluorescence polarization; 2 mM Gln; PBS (pH 6.5), 0.5 mM EDTA, 7 mM MgCl2, 100 mM KCl, 5 mM phosphate, herring sperm DNA, 50 C; 10 nM labeled dsDNA
Details: protein: recombinant; tags: N-terminal His6 (Methods; called YneJ-His6 in text); chain copies: 4; label: 6-FAM on S41 (printed at the 5' end; Methods say 3' end); blunt

B1: sad-yneJ consensus motif 21 bp (dsDNA)
DNA 1: GGGTTCTCGATTCGTGAAGGG
DNA 2: CCCTTCACGAATCGAGAACCC
- binding result: binds
